± gives the uncertainty stated by the source.
B1: POU domain, class 2, transcription factor 3, residues 186 to 260; numbered along this chain, Q9UKI9 (parent)
chain: SDLEELEKFAKTFKQRRIKLGFTQGDVGLAMGKLYGNDFSQTTISRFEALNLSFKNMCKLKPLLEKWLNDAESSP

Variants of: B1
Assay: abundance fitness (aPCA) (normalised: wild type 0, dead -1); higher = more abundant; growth selection in yeast, the domain comes from the species named
Conditions: Homo sapiens

Variant | abundance fitness
SDLEELEKFAKTFKQRRIKLGFTQGDVGLAMGKLYGNDFSQTTISRFEALNLSFPNMCKLKPLLEKWLNDAESSP | -0.155 ± 0.06
SDLEELEKFAKTFKQRRIKLGFTQGDVGLAMGKLYGNDFSQTTISRFEALNLSFMNMCKLKPLLEKWLNDAESSP | -0.052 ± 0.047
SDLEELEKFAKTFKQRRIKLGFTQGDVGLAMGKLYGNDFSQTTISRFEALNLSFHNMCKLKPLLEKWLNDAESSP | -0.132 ± 0.099
SDLEELEKFAKTFKQRRIKLGFTQGDVGLAMGKLYGNDFSQTTISRFEALNLSFSNMCKLKPLLEKWLNDAESSP | 0.011 ± 0.036
SDLEELEKFAKTFKQRRIKLGFTQGDVGLAMGKLYGNDFSQTTISRFEALNLSFVNMCKLKPLLEKWLNDAESSP | -0.006 ± 0.034
SDLEELEKFAKTFKQRRIKLGFTQGDVGLAMGKLYGNDFSQTTISRFEALNLSFFNMCKLKPLLEKWLNDAESSP | -0.031 ± 0.068
SDLEELEKFAKTFKQRRIKLGFTQGDVGLAMGKLYGNDFSQTTISRFEALNLSFWNMCKLKPLLEKWLNDAESSP | -0.093 ± 0.042
SDLEELEKFAKTFKQRRIKLGFTQGDVGLAMGKLYGNDFSQTTISRFEALNLSFQNMCKLKPLLEKWLNDAESSP | 0.046 ± 0.046
SDLEELEKFAKTFKQRRIKLGFTQGDVGLAMGKLYGNDFSQTTISRFEALNLSFINMCKLKPLLEKWLNDAESSP | -0.12 ± 0.13
SDLEELEKFAKTFKQRRIKLGFTQGDVGLAMGKLYGNDFSQTTISRFEALNLSFRNMCKLKPLLEKWLNDAESSP | -0.015 ± 0.028
SDLEELEKFAKTFKQRRIKLGFTQGDVGLAMGKLYGNDFSQTTISRFEALNLSFTNMCKLKPLLEKWLNDAESSP | -0.003 ± 0.047
SDLEELEKFAKTFKQRRIKLGFTQGDVGLAMGKLYGNDFSQTTISRFEALNLSFENMCKLKPLLEKWLNDAESSP | 0.016 ± 0.042
SDLEELEKFAKTFKQRRIKLGFTQGDVGLAMGKLYGNDFSQTTISRFEALNLSFLNMCKLKPLLEKWLNDAESSP | 0.001 ± 0.039
SDLEELEKFAKTFKQRRIKLGFTQGDVGLAMGKLYGNDFSQTTISRFEALNLSFNNMCKLKPLLEKWLNDAESSP | -0.152 ± 0.066
SDLEELEKFAKTFKQRRIKLGFTQGDVGLAMGKLYGNDFSQTTISRFEALNLSFDNMCKLKPLLEKWLNDAESSP | 0.037 ± 0.052
SDLEELEKFAKTFKQRRIKLGFTQGDVGLAMGKLYGNDFSQTTISRFEALNLSFGNMCKLKPLLEKWLNDAESSP | 0.009 ± 0.029
SDLEELEKFAKTFKQRRIKLGFTQGDVGLAMGKLYGNDFSQTTISRFEALNLSFCNMCKLKPLLEKWLNDAESSP | -0.033 ± 0.078
SDLEELEKFAKTFKQRRIKLGFTQGDVGLAMGKLYGNDFSQTTISRFEALNLSFYNMCKLKPLLEKWLNDAESSP | 0.069 ± 0.081
SDLEELEKFAKTFKQRRIKLGFTQGDVGLAMGKLYGNDFSQTTISRFEALNLSFKSMCKLKPLLEKWLNDAESSP | -0.035 ± 0.036

Variant | abundance fitness
SDLEELEKFAKTFKQRRIKLGFTQGDVGLAMGKLYGNDFSQTTISRFEALNLSFKWMCKLKPLLEKWLNDAESSP | 0.014 ± 0.038
SDLEELEKFAKTFKQRRIKLGFTQGDVGLAMGKLYGNDFSQTTISRFEALNLSFKYMCKLKPLLEKWLNDAESSP | -0.022 ± 0.052
SDLEELEKFAKTFKQRRIKLGFTQGDVGLAMGKLYGNDFSQTTISRFEALNLSFKHMCKLKPLLEKWLNDAESSP | 0.014 ± 0.057
SDLEELEKFAKTFKQRRIKLGFTQGDVGLAMGKLYGNDFSQTTISRFEALNLSFKMMCKLKPLLEKWLNDAESSP | 0.045 ± 0.047
SDLEELEKFAKTFKQRRIKLGFTQGDVGLAMGKLYGNDFSQTTISRFEALNLSFKIMCKLKPLLEKWLNDAESSP | -0.034 ± 0.082
SDLEELEKFAKTFKQRRIKLGFTQGDVGLAMGKLYGNDFSQTTISRFEALNLSFKTMCKLKPLLEKWLNDAESSP | 0.093 ± 0.048
SDLEELEKFAKTFKQRRIKLGFTQGDVGLAMGKLYGNDFSQTTISRFEALNLSFKGMCKLKPLLEKWLNDAESSP | -0.05 ± 0.029
SDLEELEKFAKTFKQRRIKLGFTQGDVGLAMGKLYGNDFSQTTISRFEALNLSFKEMCKLKPLLEKWLNDAESSP | -0.001 ± 0.039
SDLEELEKFAKTFKQRRIKLGFTQGDVGLAMGKLYGNDFSQTTISRFEALNLSFKLMCKLKPLLEKWLNDAESSP | -0.008 ± 0.033
SDLEELEKFAKTFKQRRIKLGFTQGDVGLAMGKLYGNDFSQTTISRFEALNLSFKFMCKLKPLLEKWLNDAESSP | -0.058 ± 0.065
SDLEELEKFAKTFKQRRIKLGFTQGDVGLAMGKLYGNDFSQTTISRFEALNLSFKCMCKLKPLLEKWLNDAESSP | -0.016 ± 0.057
SDLEELEKFAKTFKQRRIKLGFTQGDVGLAMGKLYGNDFSQTTISRFEALNLSFKRMCKLKPLLEKWLNDAESSP | 0.009 ± 0.028
SDLEELEKFAKTFKQRRIKLGFTQGDVGLAMGKLYGNDFSQTTISRFEALNLSFKPMCKLKPLLEKWLNDAESSP | -0.206 ± 0.054
SDLEELEKFAKTFKQRRIKLGFTQGDVGLAMGKLYGNDFSQTTISRFEALNLSFKQMCKLKPLLEKWLNDAESSP | 0.046 ± 0.059
SDLEELEKFAKTFKQRRIKLGFTQGDVGLAMGKLYGNDFSQTTISRFEALNLSFKDMCKLKPLLEKWLNDAESSP | 0.008 ± 0.051
SDLEELEKFAKTFKQRRIKLGFTQGDVGLAMGKLYGNDFSQTTISRFEALNLSFKVMCKLKPLLEKWLNDAESSP | -0.082 ± 0.033
SDLEELEKFAKTFKQRRIKLGFTQGDVGLAMGKLYGNDFSQTTISRFEALNLSFKAMCKLKPLLEKWLNDAESSP | 0.018 ± 0.035
SDLEELEKFAKTFKQRRIKLGFTQGDVGLAMGKLYGNDFSQTTISRFEALNLSFKKMCKLKPLLEKWLNDAESSP | -0.024 ± 0.045
